Results on 1 substance are retold here after PMC12578939.

For this assay, the target named is microtubules polymerised from bovine brain tubulin (bovine) (UniProt Q6B856). Nature of the assay: TIRF microscopy of binding to immobilised microtubules.

“augmin octamer lacking the N-terminal CH domain of Haus6 (residues 1-160) (from UniProt Q6DCY9;Q0IHJ3) (complex)” displayed a reduction in MT binding against wildtype augmin of 50%.
